Assay results taken from publication PMC5077174, “Analysis of the Physiological Activities of Scd6 through Its Interaction with Hmt1” (PLoS ONE, 2016).

Target: T1, GST-Scd6 (S. cerevisiae, UniProt P45978 1-349)
T1 construct: Scd6, S. cerevisiae; source: E. coli BL21 (DE3), purified (glutathione-sepharose beads)
T1 sequence (looked up): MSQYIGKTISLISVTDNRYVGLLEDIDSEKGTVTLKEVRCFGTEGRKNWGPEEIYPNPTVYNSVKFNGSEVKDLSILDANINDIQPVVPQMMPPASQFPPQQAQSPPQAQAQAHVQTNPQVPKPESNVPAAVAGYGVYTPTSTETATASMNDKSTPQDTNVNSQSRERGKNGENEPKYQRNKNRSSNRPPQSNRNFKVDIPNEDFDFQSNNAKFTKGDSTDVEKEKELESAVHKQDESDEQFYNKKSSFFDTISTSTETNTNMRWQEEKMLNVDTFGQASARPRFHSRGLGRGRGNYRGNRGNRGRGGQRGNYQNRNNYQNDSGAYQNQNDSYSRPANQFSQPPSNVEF
Assay: pull-down; His6-Hmt1 incubated with GST or GST-Scd6 immobilized on glutathione-sepharose beads for 3 h at 4°C, 5 washes with PBS; Coomassie staining and anti-His immunoblot
Conditions: both partners purified

B1: His6-Hmt1 (natural protein, S. cerevisiae, UniProt P38074 1-348, looked up)
chain: MSKTAVKDSATEKTKLSESEQHYFNSYDHYGIHEEMLQDTVRTLSYRNAIIQNKDLFKDKIVLDVGCGTGILSMFAAKHGAKHVIGVDMSSIIEMAKELVELNGFSDKITLLRGKLEDVHLPFPKVDIIISEWMGYFLLYESMMDTVLYARDHYLVEGGLIFPDKCSIHLAGLEDSQYKDEKLNYWQDVYGFDYSPFVPLVLHEPIVDTVERNNVNTTSDKLIEFDLNTVKISDLAFKSNFKLTAKRQDMINGIVTWFDIVFPAPKGKRPVEFSTGPHAPYTHWKQTIFYFPDDLDAETGDTIEGELVCSPNEKNNRDLNIKISYKFESNGIDGNSRSRKNEGSYLMH
notes: Hmt1, S. cerevisiae; source: E. coli BL21 (DE3), purified (Ni-NTA agarose, imidazole elution, dialyzed)
**Q.** Does B1 bind?
**A.** binds
